From the supplement of paper PMC10065799, “High-throughput profiling of sequence recognition by tyrosine kinases and SH2 domains using bacterial peptide display” (eLife, 2023)

What was measured:
AncSZ = assay: phosphorylation enrichment, bacterial display (enrichment ratio); higher = better substrate or ligand; peptides without Tyr show the background
EPHB1 = EPHB1 (UniProt P54762); assay: as above
EPHB2 = EPHB2 (UniProt P29323); assay: as above
FGFR1 = FGFR1 (UniProt P11362); assay: as above
FGFR3 = FGFR3 (UniProt P22607); assay: as above
Fer (mouse) = assay: as above
Fes = Fes (UniProt P07332); assay: as above
Fyn = Fyn (UniProt P06241); assay: as above
Hck = Hck (UniProt P08631); assay: as above
Jak2 = Jak2 (UniProt O60674); assay: as above
MERTK = MERTK (UniProt Q12866); assay: as above
c-Abl (mouse) = assay: as above
c-Src = assay: as above
Grb2 SH2 = Grb2 SH2 (UniProt P62993); assay: SH2 binding enrichment of the phosphorylated peptide, bacterial display (enrichment ratio); higher = better substrate or ligand; peptides without Tyr show the background
SHP2-C SH2 = assay: as above
c-Src SH2 = assay: as above
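Throughout, for SH2 binding enrichment of the phosphorylated peptide, bacterial display: peptide library displayed on the E. coli surface as eCPX fusions, selected cells deep-sequenced, score is each peptide's frequency after selection divided by its frequency in the input.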
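Throughout, for phosphorylation enrichment, bacterial display: 11-residue human phosphosite peptides and single-mutation variants displayed on the E. coli surface, counted by deep sequencing, each peptide's frequency after selection divided by its frequency in the unselected input library; frequency after pTyr selection over input frequency; kinase dosed for 20-30% of maximal phosphorylation in three min.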

Chain of FGFR1 (P11362 whole entry, looked up): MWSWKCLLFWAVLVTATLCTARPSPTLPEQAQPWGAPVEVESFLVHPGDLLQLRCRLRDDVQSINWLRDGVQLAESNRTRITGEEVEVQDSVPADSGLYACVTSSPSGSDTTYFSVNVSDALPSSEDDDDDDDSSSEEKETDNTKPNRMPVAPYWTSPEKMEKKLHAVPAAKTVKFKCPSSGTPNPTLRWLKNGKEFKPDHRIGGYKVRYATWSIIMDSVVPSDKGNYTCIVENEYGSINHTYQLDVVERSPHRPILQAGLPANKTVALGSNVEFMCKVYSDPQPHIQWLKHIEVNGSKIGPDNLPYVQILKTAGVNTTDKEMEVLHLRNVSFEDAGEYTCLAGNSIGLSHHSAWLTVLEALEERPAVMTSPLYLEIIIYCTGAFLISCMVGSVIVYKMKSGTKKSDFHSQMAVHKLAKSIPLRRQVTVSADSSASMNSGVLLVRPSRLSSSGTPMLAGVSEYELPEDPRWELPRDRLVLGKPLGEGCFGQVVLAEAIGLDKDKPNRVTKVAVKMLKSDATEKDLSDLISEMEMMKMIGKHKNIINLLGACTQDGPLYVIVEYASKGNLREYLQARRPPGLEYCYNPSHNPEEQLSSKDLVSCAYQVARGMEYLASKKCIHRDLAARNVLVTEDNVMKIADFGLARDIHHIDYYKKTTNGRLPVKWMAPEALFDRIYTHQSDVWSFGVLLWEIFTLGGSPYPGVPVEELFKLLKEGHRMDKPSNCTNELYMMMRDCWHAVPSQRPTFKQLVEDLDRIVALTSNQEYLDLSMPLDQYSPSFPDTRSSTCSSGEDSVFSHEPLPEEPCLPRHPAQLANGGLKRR
Chain of Jak2 (O60674 whole entry, looked up): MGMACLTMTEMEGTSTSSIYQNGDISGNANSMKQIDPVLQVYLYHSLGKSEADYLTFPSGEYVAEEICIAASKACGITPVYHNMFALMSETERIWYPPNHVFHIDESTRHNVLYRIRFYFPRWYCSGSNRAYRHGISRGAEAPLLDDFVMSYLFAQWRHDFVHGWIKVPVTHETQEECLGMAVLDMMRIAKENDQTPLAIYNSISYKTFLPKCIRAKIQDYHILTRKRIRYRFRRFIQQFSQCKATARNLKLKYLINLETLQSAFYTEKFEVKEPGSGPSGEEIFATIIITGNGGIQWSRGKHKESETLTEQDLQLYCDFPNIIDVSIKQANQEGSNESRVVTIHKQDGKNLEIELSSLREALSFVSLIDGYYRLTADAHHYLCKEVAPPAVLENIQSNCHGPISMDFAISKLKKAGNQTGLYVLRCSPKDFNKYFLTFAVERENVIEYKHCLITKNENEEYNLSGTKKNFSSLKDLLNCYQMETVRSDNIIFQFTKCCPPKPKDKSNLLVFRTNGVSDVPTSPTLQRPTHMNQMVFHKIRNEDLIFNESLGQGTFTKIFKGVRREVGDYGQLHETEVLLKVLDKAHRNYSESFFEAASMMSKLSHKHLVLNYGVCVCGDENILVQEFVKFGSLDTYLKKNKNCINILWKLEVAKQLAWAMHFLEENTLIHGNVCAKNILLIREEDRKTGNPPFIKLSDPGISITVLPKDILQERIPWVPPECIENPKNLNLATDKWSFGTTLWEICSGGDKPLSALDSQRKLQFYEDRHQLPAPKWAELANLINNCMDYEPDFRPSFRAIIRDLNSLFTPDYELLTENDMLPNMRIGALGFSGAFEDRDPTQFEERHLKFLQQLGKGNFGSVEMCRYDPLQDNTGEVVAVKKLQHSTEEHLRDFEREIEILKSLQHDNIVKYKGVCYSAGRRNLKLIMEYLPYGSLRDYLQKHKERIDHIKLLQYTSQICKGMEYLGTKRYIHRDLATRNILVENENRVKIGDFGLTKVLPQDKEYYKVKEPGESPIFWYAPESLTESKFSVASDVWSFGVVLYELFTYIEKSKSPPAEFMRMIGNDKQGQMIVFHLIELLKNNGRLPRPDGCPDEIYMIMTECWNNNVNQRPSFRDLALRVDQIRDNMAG
Chain of Fyn (P06241 whole entry, looked up): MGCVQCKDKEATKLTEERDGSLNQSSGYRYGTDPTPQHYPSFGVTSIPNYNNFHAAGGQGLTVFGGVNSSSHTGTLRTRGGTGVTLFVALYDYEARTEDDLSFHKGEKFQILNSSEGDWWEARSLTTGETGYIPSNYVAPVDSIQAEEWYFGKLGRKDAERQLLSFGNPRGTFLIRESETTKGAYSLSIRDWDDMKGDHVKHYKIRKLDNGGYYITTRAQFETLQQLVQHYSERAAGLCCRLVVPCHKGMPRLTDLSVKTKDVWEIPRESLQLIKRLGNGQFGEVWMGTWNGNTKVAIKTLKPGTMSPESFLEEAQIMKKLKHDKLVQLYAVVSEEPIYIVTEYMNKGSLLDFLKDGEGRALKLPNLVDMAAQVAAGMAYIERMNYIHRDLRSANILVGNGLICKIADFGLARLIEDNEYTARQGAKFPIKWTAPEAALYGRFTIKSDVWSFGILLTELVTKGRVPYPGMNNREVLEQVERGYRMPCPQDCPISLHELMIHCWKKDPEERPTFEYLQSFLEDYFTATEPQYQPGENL
Chain of EPHB1 (P54762 whole entry, looked up): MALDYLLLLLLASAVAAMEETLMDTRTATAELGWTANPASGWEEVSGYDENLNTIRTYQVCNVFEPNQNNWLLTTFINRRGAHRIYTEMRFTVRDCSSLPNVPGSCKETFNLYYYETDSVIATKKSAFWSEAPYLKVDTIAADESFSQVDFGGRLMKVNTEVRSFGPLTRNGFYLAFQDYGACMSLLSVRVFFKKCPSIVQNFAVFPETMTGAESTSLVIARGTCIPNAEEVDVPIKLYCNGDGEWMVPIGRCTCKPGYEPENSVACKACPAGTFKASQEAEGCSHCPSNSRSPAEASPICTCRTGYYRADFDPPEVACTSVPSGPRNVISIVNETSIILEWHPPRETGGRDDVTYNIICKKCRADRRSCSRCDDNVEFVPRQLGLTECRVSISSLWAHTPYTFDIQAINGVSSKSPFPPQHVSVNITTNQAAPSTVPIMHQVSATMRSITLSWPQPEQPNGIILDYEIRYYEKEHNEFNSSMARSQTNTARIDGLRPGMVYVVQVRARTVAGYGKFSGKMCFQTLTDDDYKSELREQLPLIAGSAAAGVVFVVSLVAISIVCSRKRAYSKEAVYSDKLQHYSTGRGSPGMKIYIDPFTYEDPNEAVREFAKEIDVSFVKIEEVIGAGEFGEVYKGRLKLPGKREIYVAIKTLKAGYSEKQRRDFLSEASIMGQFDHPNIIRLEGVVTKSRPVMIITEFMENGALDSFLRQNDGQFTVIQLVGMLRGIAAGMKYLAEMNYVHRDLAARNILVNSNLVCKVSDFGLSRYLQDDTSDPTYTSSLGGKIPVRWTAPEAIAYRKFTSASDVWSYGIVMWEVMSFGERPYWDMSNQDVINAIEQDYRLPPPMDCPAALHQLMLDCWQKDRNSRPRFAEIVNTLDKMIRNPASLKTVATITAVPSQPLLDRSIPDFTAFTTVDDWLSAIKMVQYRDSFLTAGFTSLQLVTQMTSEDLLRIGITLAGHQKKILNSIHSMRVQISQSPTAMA
Chain of FGFR3 (P22607 whole entry, looked up): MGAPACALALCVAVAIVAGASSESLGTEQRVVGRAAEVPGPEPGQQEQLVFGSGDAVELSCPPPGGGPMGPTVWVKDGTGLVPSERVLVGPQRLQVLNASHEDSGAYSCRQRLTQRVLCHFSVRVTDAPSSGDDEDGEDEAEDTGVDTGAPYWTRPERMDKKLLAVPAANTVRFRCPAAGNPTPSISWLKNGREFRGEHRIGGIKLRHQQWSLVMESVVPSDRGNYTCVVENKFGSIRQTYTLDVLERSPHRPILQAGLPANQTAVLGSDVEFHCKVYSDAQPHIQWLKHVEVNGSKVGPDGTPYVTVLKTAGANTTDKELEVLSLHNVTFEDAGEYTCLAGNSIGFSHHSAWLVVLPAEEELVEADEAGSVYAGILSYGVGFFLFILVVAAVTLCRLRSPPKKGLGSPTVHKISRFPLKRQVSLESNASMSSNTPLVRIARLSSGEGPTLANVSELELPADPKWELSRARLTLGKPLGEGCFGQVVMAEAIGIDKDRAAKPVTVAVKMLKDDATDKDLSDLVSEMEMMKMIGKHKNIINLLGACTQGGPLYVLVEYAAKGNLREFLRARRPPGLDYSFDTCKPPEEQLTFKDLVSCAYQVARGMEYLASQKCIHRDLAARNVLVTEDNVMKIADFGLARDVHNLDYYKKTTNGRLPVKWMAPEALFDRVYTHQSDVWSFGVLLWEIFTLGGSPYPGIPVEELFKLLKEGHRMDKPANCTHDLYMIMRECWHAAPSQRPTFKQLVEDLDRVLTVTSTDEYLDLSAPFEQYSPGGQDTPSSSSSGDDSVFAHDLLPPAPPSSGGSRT
Chain of Hck (P08631 whole entry, looked up): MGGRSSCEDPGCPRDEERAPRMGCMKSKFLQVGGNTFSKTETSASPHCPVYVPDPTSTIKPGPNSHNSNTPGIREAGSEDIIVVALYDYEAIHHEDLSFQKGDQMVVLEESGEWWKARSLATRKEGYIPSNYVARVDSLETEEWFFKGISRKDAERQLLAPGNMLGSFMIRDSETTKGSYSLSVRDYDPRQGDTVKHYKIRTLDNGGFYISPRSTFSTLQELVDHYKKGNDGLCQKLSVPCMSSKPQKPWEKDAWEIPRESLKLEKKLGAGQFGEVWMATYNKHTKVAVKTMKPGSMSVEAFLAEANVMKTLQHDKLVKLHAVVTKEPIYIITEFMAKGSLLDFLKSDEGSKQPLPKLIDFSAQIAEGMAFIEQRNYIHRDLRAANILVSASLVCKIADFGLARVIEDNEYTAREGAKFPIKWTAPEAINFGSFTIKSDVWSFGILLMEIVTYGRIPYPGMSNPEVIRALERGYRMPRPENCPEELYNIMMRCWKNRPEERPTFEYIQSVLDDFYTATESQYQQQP

Row | SH2 binding enrichment (Grb2 SH2) | SH2 binding enrichment (SHP2-C SH2) | SH2 binding enrichment (c-Src SH2) | Sequence | phosphorylation enrichment (AncSZ) | phosphorylation enrichment (EPHB1) | phosphorylation enrichment (EPHB2) | phosphorylation enrichment (FGFR1) | phosphorylation enrichment (FGFR3) | phosphorylation enrichment (Fer (mouse)) | phosphorylation enrichment (Fes) | phosphorylation enrichment (Fyn) | phosphorylation enrichment (Hck) | phosphorylation enrichment (Jak2) | phosphorylation enrichment (MERTK) | phosphorylation enrichment (c-Abl (mouse)) | phosphorylation enrichment (c-Src)
1 | 0.771 | 0.763 | 0.507 | VNNAVYGIDAM [EIF3J_Y143] | 0.86 | 0.417 | 0.437 | 0.506 | 0.502 | 0.486 | 0.88 | 1.09 | 0.829 | 0.764 | 0.426 | 0.509 | 1
2 | 0.831 | 0.579 | 0.46 | VPEANYTSDEE [STK33_Y439_D436E] | 1.42 | 0.897 | 0.691 | 0.607 | 0.947 | 0.721 | 1.52 | 0.665 | 0.576 | 1.99 | 0.699 | 1.17 | 0.614
3 | 0.859 | 0.682 | 0.866 | VPLATYMQIFK [RPL21_Y30_R32Q_YF] | 0.745 | 1.83 | 0.648 | 0.471 | 0.54 | 0.308 | 0.654 | 0.887 | 1.8 | 0.836 | 0.613 | 0.361 | 1.54
4 | 0.95 | 0.579 | 0.494 | VRRVGYVSGWG [HP_Y280_G276R] | 0.613 | 0.422 | 0.423 | 0.373 | 0.391 | 0.469 | 0.61 | 0.388 | 0.438 | 0.514 | 0.387 | 0.642 | 0.434
5 | 1.08 | 1.45 | 0.545 | VRVQLYDPDYM [CYP4A22_Y100] | 1.56 | 1.27 | 0.776 | 0.538 | 0.741 | 0.599 | 1.27 | 0.493 | 0.807 | 1.15 | 0.887 | 0.79 | 0.615
6 | 0.774 | 0.777 | 2.88 | VTVLDYDKIGK [SYT1_Y365] | 0.621 | 0.45 | 0.541 | 0.505 | 0.515 | 0.404 | 0.828 | 0.343 | 0.648 | 0.501 | 0.48 | 0.482 | 0.391
7 | 0.475 | 0.771 | 0.446 | VVSMNYRVGAL [BCHE_Y174] | 0.703 | 0.511 | 0.445 | 0.524 | 0.534 | 0.333 | 0.802 | 0.336 | 0.43 | 0.722 | 0.362 | 0.556 | 0.342
8 | 1.1 | 0.738 | 0.717 | WCSNDYLGMSQ [ALAS2_Y199_R204Q] | 2.88 | 1.52 | 0.944 | 3.03 | 2.11 | 0.642 | 1.02 | 0.541 | 0.738 | 4.19 | 0.478 | 0.782 | 1.06
9 | 0.765 | 0.526 | 0.586 | WGLCSYYETSK [MAGED2_Y448_R446C] | 1.38 | 0.865 | 0.73 | 0.76 | 1.02 | 0.572 | 1.31 | 0.488 | 0.58 | 1.35 | 0.56 | 0.818 | 0.712
10 | 1.4 | 1.07 | 1.57 | WHHTFYNEPRV [ACTA1_Y93_L96P] | 0.965 | 0.573 | 0.497 | 0.522 | 0.561 | 0.582 | 1.03 | 0.429 | 0.552 | 0.794 | 0.59 | 0.709 | 0.508
11 | 1.08 | 0.969 | 0.708 | WKESWYSMRKM [FGB_Y475_G472E] | 1.05 | 0.714 | 0.669 | 0.513 | 0.738 | 0.535 | 1.34 | 0.554 | 0.591 | 1.33 | 0.544 | 0.792 | 0.672
12 | 0.826 | 0.573 | 0.36 | WLFFRYLAIGC [ATP2A2_Y836] | 1.51 | 0.633 | 0.496 | 0.503 | 0.798 | 0.573 | 1.55 | 0.477 | 0.462 | 1.49 | 0.482 | 1.09 | 0.432
13 | 0.973 | 0.566 | 9.33 | WNEVGYDDIGG [VCP_Y203_L198W] | 1.07 | 0.608 | 0.515 | 0.557 | 0.724 | 0.53 | 1.27 | 0.422 | 0.538 | 1.14 | 0.406 | 0.737 | 0.502
14 | 0.994 | 0.61 | 0.481 | WNGDKYAATTT [TRIM39_Y439] | 0.717 | 0.462 | 0.592 | 0.654 | 0.679 | 0.446 | 0.731 | 0.48 | 0.52 | 0.729 | 0.381 | 0.513 | 0.421
15 | 0.999 | 0.776 | 0.592 | WQQQSYLDFGI [CTNNB1_Y30_S33F] | 0.883 | 0.635 | 0.564 | 0.816 | 0.757 | 0.39 | 1.04 | 0.524 | 0.441 | 0.974 | 0.418 | 0.658 | 0.544
